Six molecules from publication PMC10328973 (Nature Communications, 2023) can be followed below.

Assay [1] addresses T1, UKNP5.2.1 E2E1-I53-50A trimer (Hepatitis C virus genotype 5, strain …, UniProt A0A0U3TV66, stabilised). Kind of assay: cell-based or functional assay.
In assay [2] the target is T2, AMS2b E2E1-I53-50A trimer (Hepatitis C virus genotype 2b, strain …, stabilised).
T2 construct: also called AMS2b E2E1 trimer; source: HEK293F, co-transfected with furin, purified (Strep-TactinXT, SEC); copies: 3 + 3
Kind of assay: ELISA. Particulars: both partners purified. (In general: In an ELISA, binding on a coated surface is turned into a signal by an enzyme label.)

In the next assay the target is T3, H77 E2E1-I53-50A trimer (Hepatitis C virus genotype 1a, strain …, UniProt P27958, stabilised).
T3 construct: source: HEK293F, co-transfected with furin, purified (Strep-TactinXT, SEC); copies: 3 + 3
In words: ELISA. To be noted: both partners purified.

For assay [3], the target named is T4, AMS3a E2E1-I53-50A trimer (Hepatitis C virus genotype 3a, strain …, stabilised).
T4 construct: also called AMS3a E2E1 trimer; source: HEK293F, co-transfected with furin, purified (Strep-TactinXT, SEC); copies: 3 + 3
In words: ELISA. Particulars: both partners purified.

Assay [4] concerns the target T5, UKNP6.1.2 E2E1-I53-50A trimer (Hepatitis C virus genotype 6, strain …, UniProt A0A0U3SJ35, stabilised).
T5 construct: also called UKNP6.1.2 E2E1 trimer; source: HEK293F, co-transfected with furin, purified (Strep-TactinXT, SEC); copies: 3 + 3
Kind of assay: ELISA. Particulars: both partners purified.

The target in assay [5] is T6, UKNP4.1.1 E2E1-I53-50A trimer (Hepatitis C virus genotype 4a, strain …, UniProt A0A0U3JDN1, stabilised).
T6 construct: also called UKNP4.1.1 E2E1 trimer; source: HEK293F, co-transfected with furin, purified (Strep-TactinXT, SEC); copies: 3 + 3
In words: ELISA. To be noted: both partners purified.

For assay [6], the target named is T1, UKNP5.2.1 E2E1-I53-50A trimer. Kind of assay: ELISA. To be noted: both partners purified.
Assay [7] concerns the target T7, AMS2b E2E1-I53-50A trimer (Hepatitis C virus genotype 2b, strain …, stabilised).
T7 construct: also called AMS2b E2E1 trimer; source: HEK293F, co-transfected with furin, purified (Strep-TactinXT, SEC); copies: 3 + 3
T7 chain 1: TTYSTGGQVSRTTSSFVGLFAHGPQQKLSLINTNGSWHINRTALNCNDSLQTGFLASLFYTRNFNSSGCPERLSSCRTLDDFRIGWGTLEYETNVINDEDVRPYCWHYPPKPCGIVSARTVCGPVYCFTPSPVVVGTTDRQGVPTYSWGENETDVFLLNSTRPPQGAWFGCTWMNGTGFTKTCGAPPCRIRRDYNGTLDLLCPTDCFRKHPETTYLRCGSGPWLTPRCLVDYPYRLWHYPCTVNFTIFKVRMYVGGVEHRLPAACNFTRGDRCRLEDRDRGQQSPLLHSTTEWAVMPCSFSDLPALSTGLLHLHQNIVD
T7 chain 2: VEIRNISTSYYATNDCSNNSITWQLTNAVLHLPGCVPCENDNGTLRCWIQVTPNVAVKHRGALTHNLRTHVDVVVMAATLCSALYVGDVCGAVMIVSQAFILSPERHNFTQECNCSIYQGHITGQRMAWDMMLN
In words: ELISA. To be noted: both partners purified.

The target of assay [8] is T8, UKNP4.1.1 E2E1-I53-50A trimer (Hepatitis C virus genotype 4a, strain …, UniProt A0A0U3JDN1, stabilised).
T8 construct: also called UKNP4.1.1 E2E1 trimer; source: HEK293F, co-transfected with furin, purified (Strep-TactinXT, SEC); copies: 3 + 3
In words: ELISA. Particulars: both partners purified. The source holds these as a separate data set.

The target in assay [9] is T9, UKNP5.2.1 E2E1-I53-50A trimer (Hepatitis C virus genotype 5, strain …, UniProt A0A0U3TV66, stabilised).
T9 construct: also called UKNP5.2.1 E2E1 trimer; source: HEK293F, co-transfected with furin, purified (Strep-TactinXT, SEC); copies: 3 + 3
Kind of assay: ELISA. To be noted: both partners purified. The source holds these as a separate data set.

For assay [10], the target named is T10, AMS3a E2E1-I53-50A trimer (Hepatitis C virus genotype 3a, strain …, stabilised).
T10 construct: also called AMS3a E2E1 trimer; source: HEK293F, co-transfected with furin, purified (Strep-TactinXT, SEC); copies: 3 + 3
T10 chain 1: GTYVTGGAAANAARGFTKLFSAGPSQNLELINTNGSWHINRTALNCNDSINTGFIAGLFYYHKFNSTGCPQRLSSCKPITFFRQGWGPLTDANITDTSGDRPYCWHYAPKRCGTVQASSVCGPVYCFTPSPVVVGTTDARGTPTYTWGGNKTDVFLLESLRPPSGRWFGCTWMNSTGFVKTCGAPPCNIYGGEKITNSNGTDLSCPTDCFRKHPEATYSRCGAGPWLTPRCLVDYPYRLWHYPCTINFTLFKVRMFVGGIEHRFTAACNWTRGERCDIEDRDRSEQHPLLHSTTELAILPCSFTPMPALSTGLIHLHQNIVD
T10 chain 2: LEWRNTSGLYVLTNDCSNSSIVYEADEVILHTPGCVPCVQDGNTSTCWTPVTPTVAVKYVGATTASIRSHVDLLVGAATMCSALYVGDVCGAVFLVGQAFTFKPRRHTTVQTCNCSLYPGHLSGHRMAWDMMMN
In words: ELISA. To be noted: both partners purified.

Assay [11] concerns the target T11, UKNP6.1.2 E2E1-I53-50A trimer (Hepatitis C virus genotype 6, strain …, UniProt A0A0U3SJ35, stabilised).
T11 construct: also called UKNP6.1.2 E2E1 trimer; source: HEK293F, co-transfected with furin, purified (Strep-TactinXT, SEC); copies: 3 + 3
Kind of assay: ELISA. Particulars: both partners purified. This is another data set of the same source.

B1: HEPC74 (antibody, V domains shown)
VH: QVQLVQSGAEVKKPGSSVKVSCTTSGGTYINYAISWVRQAPGQGLEWVGGMSPISNTPKYAQKFQGRVTITADESTSTTYMELSSLRPEDTAVYYCARDLLKYCGGGNCHSLLVDPWGQGTLVTVSS
VL: DIVMTQSPSTLSASVGDRVTISCRASQSISSWLAWYQQKPGRAPKLLIYKASSLETGVPSRFSGSGSGTEFTLTISSLQPDDFATYYCQHYNTYLFTFGPGTKVDLK
notes: also called mature HEPC74; conventional HEPC74; source: HEK293F, transfected, purified (protein A/G)
With B1, the “neutralisation of UKNP5.2.1 HCVpp, IC50” value in assay [1] came out at 0.03 µg/mL. Besides, the binding result (in assay [2]; in the assay with H77 E2E1-I53-50A trimer; in assay [3]) was “binds” throughout.

B2: HEPC74 S54L (antibody, V domains shown)
VH: QVQLVQSGAEVKKPGSSVKVSCTTSGGTYINYAISWVRQAPGQGLEWVGGMSPILNTPKYAQKFQGRVTITADESTSTTYMELSSLRPEDTAVYYCARDLLKYCGGGNCHSLLVDPWGQGTLVTVSS
VL: DIVMTQSPSTLSASVGDRVTISCRASQSISSWLAWYQQKPGRAPKLLIYKASSLETGVPSRFSGSGSGTEFTLTISSLQPDDFATYYCQHYNTYLFTFGPGTKVDLK
notes: human IgG1; source: HEK293F, transfected, purified (protein A/G)
Regarding B2, the binding result (in [4]; in assay [5]; in [2]; in assay [6]; in the assay with H77 E2E1-I53-50A trimer; in assay [3]) was “binds” each time.

B3: HEPC3 (antibody, V domains shown)
VH: QVQLVQSGAEVKKPGSSVKVSCKASGGTLNSYEITWVRQAPGQGLEWMGGITPIFETTYAQKFQGRVTITADESTSTTYMELSSLRPEDTAVYYCARDGVRYCGGGRCYNWFDPWGQGTLVTVSS
VL: DIQMTQSPSSLSASVGDRVTITCRAGQNINNYLNWYQQKPGKAPKVLIYAASNLQSGVPSRFSGSGSGTDFTLTISSLQPEDFATYYCQQSHSTVRTFGQGTKVEIK
notes: also called mature HEPC3; source: HEK293F, transfected, purified (protein A/G)
With B3, the binding result (in assay [4]; in assay [5]; in [2]; in [6]; in the assay with H77 E2E1-I53-50A trimer; in assay [3]) was “binds” in each case.

B4: AR3C (antibody, V domains shown)
VH: VQLLEQSGAEVKKPGSSVKVSCETSGGTFDNYALNWVRQAPGQGLEWIGGVVPLFGTTRNAQKFQGRVTISDDKSTGTGHMELRSLRSEDTAVYYCVRSVTPRYCGGGFCYGEFDYWGQGTLVTVSS
VL: EIELTQSPATLSVSPGERATLSCRASQSVSSNLAWYQQKPGQAPRLLIYGASTRATGIPARFSGSGSGTEFTLTVSRLEPEDSAVYFCQQYYRSPLTFGGGTKVEIK
notes: also called mature AR3C; conventional AR3C; source: HEK293F, transfected, purified (protein A/G)
B4: the binding result (in assay [4]; in assay [5]; in assay [2]; in [6]; in the assay with H77 E2E1-I53-50A trimer; in [3]) was “binds” in each case.

B5: AT1209 (antibody, V domains shown)
VH: QVLVQSGAEVKKPGSSVRVSCKASGDTFKTHAISWVRQAPGQGLEWVGGTVRQAPGDGLELLGGFVPILAPANDAQKFQGRVTITADGSTGPVYMDLSTLTSEDTAMYYCVTSLSEPIPRSCRGGRCYSGPFDAFGVWGQ
VL: EIMLTQSPVTLSVSPGERATLSCRASQSIGTNLAWYQKPGQAPRLLIHGASTRATGVPVSFSGSGSGTEFTLTISSLQSEDFAVYYCQQYNNWPLTFGGGTKVEIK
notes: also called mature AT1209; source: HEK293F, transfected, purified (protein A/G)
As for B5, the binding result (in [4]; in [5]; in assay [2]; in assay [6]; with H77 E2E1-I53-50A trimer; in assay [3]) was “binds” in each case.

B6: AR3D (antibody, V domains shown)
VH: LLEQSGAEVKKPGSSVKVSCKASGDTFRSYVITWARQAPGQGLEWMGAIIPFFGTTNLAQKFQGRVTITADESTKTVYMDLSSLRSDDTAVYYCAKAGDLSVGGVLAGGVPHLRHFDPWGQGTLVTVSS
VL: ELTQSPGTLSLSPGERATLSCRAGQTVASNSLAWYQHKPGQAPRLLIYGASIRASGIPDRFSGSGSGTDFTLTISRLEPEDFAVYYCQQYGLSSTFGQGTRLEIK
notes: also called mature AR3D; source: HEK293F, transfected, purified (protein A/G)
With B6, the binding result (in [7]; in [8]; in [9]; with H77 E2E1-I53-50A trimer; in assay [10]; in [11]) was “binds” each time.
